Data: US20050060761A1

Biological target: TrkB receptor (endogenous, at mouse motor nerve terminals) (mouse) (UniProt P15209)
Assay: cell-based or functional assay

Sequence of UniProt P15209 (P15209 32-821): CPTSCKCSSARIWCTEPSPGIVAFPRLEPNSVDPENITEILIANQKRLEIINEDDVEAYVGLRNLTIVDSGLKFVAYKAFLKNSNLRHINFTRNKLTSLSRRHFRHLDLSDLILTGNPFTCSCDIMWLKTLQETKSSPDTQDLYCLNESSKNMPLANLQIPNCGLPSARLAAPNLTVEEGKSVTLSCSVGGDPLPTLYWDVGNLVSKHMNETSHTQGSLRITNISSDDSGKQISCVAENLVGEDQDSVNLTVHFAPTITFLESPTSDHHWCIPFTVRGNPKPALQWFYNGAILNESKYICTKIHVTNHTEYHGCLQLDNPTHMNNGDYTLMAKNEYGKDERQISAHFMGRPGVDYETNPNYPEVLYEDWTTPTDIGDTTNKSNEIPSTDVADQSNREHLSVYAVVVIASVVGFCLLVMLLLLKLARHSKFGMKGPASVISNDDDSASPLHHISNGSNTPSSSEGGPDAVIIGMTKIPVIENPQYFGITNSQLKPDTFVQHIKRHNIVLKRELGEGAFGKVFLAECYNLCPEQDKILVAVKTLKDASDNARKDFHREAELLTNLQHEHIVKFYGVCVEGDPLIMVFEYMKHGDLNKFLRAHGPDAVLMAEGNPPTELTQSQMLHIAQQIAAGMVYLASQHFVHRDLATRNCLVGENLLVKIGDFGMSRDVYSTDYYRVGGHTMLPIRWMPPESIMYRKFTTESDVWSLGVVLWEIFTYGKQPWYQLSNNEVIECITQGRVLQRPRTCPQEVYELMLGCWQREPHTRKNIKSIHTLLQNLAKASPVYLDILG

Substance	elevation in the level of GFP-TTC concentration at the NMJ (LAL), 100 ng BDNF [fold]	elevation in the level of GFP-TTC concentration at the NMJ (LAL), 250 ng BDNF [fold]	increase of GFP-TTC signal at the NMJ by BDNF after BoTx/A treatment [fold]	GFP-TTC localization at the NMJ, fold increase [fold]
recombinant human Brain Derived Neurotrophic Factor (BDNF) (from UniProt P23560 129-247) (ligand)	1.72	1.15	2.05	–
recombinant human Neurotrophin 4 (NT-4) (from UniProt P34130 81-210) (ligand)	–	–	–	1.54
